Experimental data reported in a protein production outcome set (Wang et al. 2014).

Assay: label from the status in PepcDB records
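Further: failed if final PepcDB status was selected cloned or expressed and not failed if soluble or beyond.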

Sequence	protein production
MRQDAEVIMKLTDADNAADGIFFPALEQNMMGAVLINENDEVMFFNPAAEKLWGYKREEVIGNNIDMLIPRDLRPAHPEYIRHNREGGKARVEGMSRELQLEKKDGSKIWTRFALSKVSAEGKVYYLALVRDASVEMAQKEQTRQLIIAVDHLDRPVIVLDPERHIVQCNRAFTEMFGYCISEASGMQPDTLLNIPEFPADNRIRLQQLLWKTARDQDEFLLLTRTGEKIWIKASISPVYDVLAHLQNLVMTFSDITEERQIRQLEGNILAAMCSSPPFHEMGEIICRNIESVLNESHVSLFALRNGMPIHWASSSHGAEIQNAQSWSATIRQRDGAPAGILQIKTSSGAETSAFIERVADISQHMAALALEQEKSRQHIEQLIQFDPMTGLPNRNNLHNYLDDLVDKAVSPVVYLIGVDHIQDVIDSLGYAWADQALLEVVNRFREKLKPDQYLCRIEGTQFVLVSLENDVSNITQIADELRNVVSKPIMIDDKPFPLTLSIGISYDLGKNRDYLLSTAHNAMDYIRKNGGNGWQFFSPAMNEMVKERLVLGAALKEAISNNQLKLVYQPQIFAETGELYGIEALARWHDPLHGHVPPSRFIPLAEEIGEIENIGRWVIAEACRQLAEWRSQNIHIPALSVNLSALHFRSNQLPNQVSDAMHAWGIDGHQLTVEITESMMMEHDTEIFKRIQILRDMGVGLSVDDFGTGFSGLSRLVSLPVTEIKIDKSFVDRCLTEKRILALLEAITSIGQSLNLTVVAEGVETKEQFEMLRKIHCRVIQGYFFSRPLPAEEIPGWMSSVLPLKI	failed
MIKVAESRTSWVASVFGLAALYVLGTVTPLEDIDSHLGGVNVTNLLQAIFALLAIFFFNDSVRRLANVPVVRWTYYAPLLSIPVMIASFSLIADKAPTAADFIDTRMDQLATAVYSGTYMFALLFTVLRIIYMLRHNAKGPYATFSAGLMVVAVAVSCHIAYVVLYYFSPWDDFARAIGTWFDRLFYIGLTVTAAGWLILFLSKQLPRLRLWMIDALWLTAMRMRVNADRSRVSPAWDLFNETLENGVYKSLIVLHNYERVNLMEFPESVQGRISHIEAKLDAQT	failed
MNRKLRRANLKASEPTPHETGNVINYMRQGRYAEAAHLAKGLTERFPDHGFGWKILGICTLLLGQNGDALPLFLKAAGLLPDDPDIHCNIGIIYYELNQLNEAEYYCRYALKLRPNDAIAHNNLGNILSSLGRLDEAEACFRRAIENNPDLAQAHYNLGSALQALGRLEEAESCYRRATAIRPTYEEAYASLGNVLKEMGRLDEALESWKLSLAHQEDWTNALRRLTNPLLMDGDLTRGPEYPAADAAEGQPRQLSSHPAAASVESLDRKYRVPSHGHDGSAEAGAVAGRDENAPRPLRIVLVYPPLWQIPSADLAVPEGMPFGPPATAGGPVAISRELKTITQGVLSIAAQAKKAGHDVRVYNLFNAPWADIVALIAGTGADVYGVSAYNSNRRGMGALCALIRQYHPHAHITVGGPFATTLPLETLRYYRAIDTVVVGEGEETFMELLDHIRSHRPAVGIPGTAWRNGDEVALGPVRPRIGDLDTLASHFDYYSSNIVMTSRGCPSKCSFCGNPVLWGRKIRFYSTDYCIDMFRKALARLPVPYLMIADDTFTANQQRTLNMCDAIIGNKLDFLWSCSTRVDAMEDKVLHRMRRAGCQEIMIGVESGSPEILERIHKGITPEMVLTVTRAAKKYGMLVHYYMMVINRGETPDTLQASIDLIKAGRPNSYDLTPLMFLPGTEDYGHLCEQQGLTSDIFFRNDFMDISVERKRKKDLDTVMQHLYCSIGTIGGYEYTVAEREAVVEHLPDVPTVHVELANAYLRAGQLDKATAALTRAEELGFPIGNIILNQHACIALARNQIDTSLDFLERACRSFPDVTVKGNYDKLAAWIDSRTSGQVKPCLLCDSVRAQDFVFRADETAP	failed
MSESLDFSPYLERWALQPDGEPFATHSSRLLPVRHRGAAAMLKISSAEEERFGHVLLNWWDGQGAARVLAYDHQALLMERATGGRSLLEMVRRGDDDEATRILCQAIERIHAPRPGPLPELTPLERWFDSLYAAERRYGGLYVDCANAARYLLETAREQRPLHGDIHHGNVLDFGERGWQVIDPKRLYGERGYDYANLFTNPDAKTAQAPGRFERQLEIVIAASGLQRRRLLQWILAWTGLSAAWFDEDGSREETEAELAIARLALANLARTPAQ	failed
